Columns and labels:
[1] = tested on: RPMI-8226 myeloma cells; experiment: Advanced disseminated MM model, i.v. grafted RPMI-8226 in SCID mice; format: in vivo, mouse; conditions: 2 mg/kg from five days after i.v. grafting; compared to bortezomib, lenalidomide, melphalan or dexamethasone
From the text: To assess the therapeutic potential of BI-505 for treatment of MM, the anti-myeloma effects of BI-505 were compared to current gold-standard treatment in disseminated experimental models of MM sharing characteristics with human disease. These models resemble the manifestation and progression of human MM disease in many respects, including tumor dissemination and establishment in bone marrow, and the appearance of osteolytic bone-lesions and hypercalcemia (Mitsiades et al., 2003; Yaccoby et al., 1998). Firstly, the anti-myeloma activity of BI-505 was compared with currently used treatments in an advanced disseminated MM model comprising RPMI-8226 myeloma cells. In this model, therapeutic treatment with 2 mg/kg BI-505 was started five days after intravenous grafting of MM cells to allow for homing and establishment of MM cells in bone marrow.
All studies were conducted in accordance with guidelines of the Lund University Hospital, Sweden or University of Utah, Salt Lake City, USA following approval from the local ethical committee for animal care and use. […] The role of macrophages and NK cells for BI-505 in vivo antitumor activity was assessed using anti-asialo antibody treatment, clodronate liposome treatment or NK-cell deficient mice. […]

[2] = tested on: OPM-2; experiment: SCID/xenograft MM model, subcutaneous; format: in vivo, mouse; conditions: ICAM-1-negative OPM-2, 2 mg/kg twice weekly
Experimental: (§1) Since high expression of the BI-505 epitope in human MM was found, BI-505 was screened for in vivo anti-myeloma activity using SCID/xenograft models comprising four well-characterized MM cell-lines. […] Twice weekly dosing with 2 mg/kg of BI-505 starting one day after tumor cell injection reduced myeloma tumor growth in mice xenografted with ICAM-1-expressing cell lines EJM, RPMI-8226, and NCI-H929 by 98%, 96%, and 99%, respectively (FIGS. 17A and B).
(§2) All studies were conducted in accordance with guidelines of the Lund University Hospital, Sweden or University of Utah, Salt Lake City, USA following approval from the local ethical committee for animal care and use. BI-505 efficacy and potency was examined in subcutaneous and disseminated, prophylactic and therapeutic, experimental MM models comprising myeloma cell lines RPMI-8226, U266, EJM and OPM-2. The in vivo efficacy of BI-505 was compared to clinically approved drugs dexamethasone, melphalan, bortezomib and revlimid used at clinically relevant doses in therapeutic disseminated models comprising RPMI-8226 or primary patient myeloma cells, the latter following injection of patient cells in implanted of human fetal bone in SCID mice. For subcutaneous grafting, 1-5×10^6 tumor cells (RPMI-8226, NCI-H929, EJM, OPM-2, ARH-77, or Daudi) were subcutaneously injected at a volume of 100 μl into the left flank of anesthetized mice as described in the Supplemental Information. […] Treatment with saline, isotype control IgG, bortezomib, lenalidomide, dexamethasone, or BI-505 started on day 5 (RPMI-8226). Treatment with melphalan started on day 10. BI-505 or isotype IgG mAb was administered i.v. at 2 mg/kg/inj twice weekly for 8 weeks; bortezomib at 1 mg/kg/inj once weekly for 8 weeks; lenalidomide orally at 2 mg/kg/inj for 2 cycles consisting of 5 days of treatment and 2 days of wash out; melphalan i.v. at 3 mg/kg/inj once weekly for 8 weeks; and dexamethasone at 6 mg/kg/inj three times weekly for 2 weeks. […] The role of macrophages and NK cells for BI-505 in vivo antitumor activity was assessed using anti-asialo antibody treatment, clodronate liposome treatment or NK-cell deficient mice. […]
(§3) Treatment with antibodies by intraperitoneal injection started either 1 day after cell inoculation (prophylactic model) or when tumors reached approximately 100 mm^3 (established model). […] Macrophage and NK cell depletion was assessed upon termination of tumor bearing mice exposed to effector cell depleting agents (see above), spleens were removed and splenocytes isolated by mincing through a cell strainer (70 μm nylon mesh, BD Falcon 352350), erythrocytes were removed by lysis according to manufacturer (BD Pharm Lyse 555899, BD Biosciences).

[3] = tested on: RPMI-8226; experiment: SCID/xenograft MM model, subcutaneous; format: in vivo, mouse; conditions: RPMI-8226 (ICAM-1+), 2 mg/kg twice weekly from one day after tumor cell injection
Experimental: as §1, §2, §3

[4] = tested on: EJM; experiment: SCID/xenograft MM model, subcutaneous; format: in vivo, mouse; conditions: EJM (ICAM-1+), 2 mg/kg twice weekly from one day after tumor cell injection
Experimental: as §1, §2, §3

[5] = tested on: NCI-H929; experiment: SCID/xenograft MM model, subcutaneous; format: in vivo, mouse; conditions: NCI-H929 (ICAM-1+), 2 mg/kg twice weekly from one day after tumor cell injection
Experimental: as §1, §2, §3

[6] = tested on: U266 myeloma cells; experiment: NK-cell deficient NOD/Shi-scid/IL-2Rγ−/− mouse model; format: in vivo; conditions: U266 grafted to NOD/Shi-scid/IL-2Rγ−/− mice
Experimental: (FIG. 20F) Animal survival following BI-505 or control antibody treatment in a disseminated NK-cell deficient NOD/Shi-scid/IL-2Rγ^−/− mouse model comprising i.v. grafted U266 myeloma cells. ***p<0.001.
Six-eight weeks-old female NOD/Shi-scid IL-2Rγ^−/− mice were obtained from Taconic, Denmark. Five million (5×10^6) RPMI-8226 or U266 tumor cells in 200 μL of RPMI 1640 were intravenously injected into the caudal vein (day 0). The tumor cell injection was performed 2 hr after whole body irradiation of mice (1.5 Gy, Cesium 137, IBL 637). At day 4, mice were randomized into 6 groups and treatment was initiated according to the schedule below.

B1: B11: fully human IgG1 antibody specific for ICAM-1; VH and VL sequences of FIG. 10 (SEQ ID NOs. 6 and 8) (antibody, listed as Homo sapiens, V domains shown)
VH: EVQLLESGGGLVQPGGSLRLSCAASGFTFSNAWMSWVRQAPGKGLEWVAFIWYDGSNKYYADSVKGRFTISRDNSKNTLYLQMNSLRAEDTAVYYCARYSGWYFDYWGQGTLVTVSS
VL: QSVLTQPPSASGTPGQRVTISCTGSSSNIGAGYDVHWYQQLPGTAPKLLIYDNNNRPSGVPDRFSGSKSGTSASLAISGLRSEDEADYYCQSYDSSLSAWLFGGGTKLTVLG
- survival and disease onset [1]: significantly enhanced survival and delayed disease onset
- tumor growth [2]: did not affect tumor growth
- reduction of myeloma tumor growth [3]: 96%
- reduction of myeloma tumor growth [4]: 98%
- reduction of myeloma tumor growth [5]: 99%
- antitumor activity [6]: significant antitumor activity
